Measured values from paper PMC9276969.

Target: V5-tagged L. vannamei STAT (Litopenaeus vannamei)
Assay: native gel or EMSA; S2 cells co-transfected with pAc5.1-STAT and pAc5.1-PTPN6 or pAc5.1-GFP (control); lysed in Pierce IP Lysis buffer at 48 h; 10% native PAGE, Western blot with antibody against shrimp STAT; dimer and monomer bands

“V5-tagged L. vannamei STAT (natural protein)” gave a stoichiometry N of 2.
